Reference: the supplement of paper PMC9170038

Experiments:
MS2 coat protein [1] = assay: apparent KD of MS2 coat protein, switch OFF state (with FMN for OFF switches, without FMN for ON switches); designed switch direction (-1 OFF switch, 1 ON switch): 1; higher = weaker reporter binding; conditions: FMN input: 0 or 200 uM; Eterna round: R93 (includes R88 designs)
How it was run: (§1)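 Titration buffer: 100 mM Tris-HCl pH 7.5, 80 mM KCl, 4 mM MgCl2, without or with constant ligand. Designed RNA switches transcribed on-chip from Illumina sequencing clusters received SNAP-549-labelled MS2 coat protein in twofold steps from 0.7 or 1.5 nM to 3 µM. Apparent KD is the median per design of fits to normalised cluster binding curves.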

MS2 coat protein [2] = assay: apparent KD of MS2 coat protein, switch ON state; designed switch direction (-1 OFF switch, 1 ON switch): 1; higher = weaker reporter binding; conditions: FMN input: 0 or 200 uM; Eterna round: R93 (includes R88 designs)
How it was run: as §1

| Sequence | apparent KD of MS2 coat protein (MS2 coat protein [1]) | apparent KD of MS2 coat protein (MS2 coat protein [2]) |
| --- | --- | --- |
| CGAAAGGAGAGAGAGGAUAUCCAAAGGAAAACAUGAGGAUCACCCAUGUAGAAGGUAGGAGAUUGGGAGAAGGCUCAAGACAGAG [salish99-ss2-143(!!!!)] | 36.1 nM | 21.3 nM |
| AAAUAAAUGACUGAGGAUAUAUCGAUGAAUACAUGAGGAUCACCCAUGUGAUAAUAAAAAGGGUGGUAGAAGGUAGUCAACAAAC [Mod 13 of Pariah 4 by Hyphema in Round 1] | 71.9 nM | 95.9 nM |
| AAAAUACAUGAGGAUCACCCAUGUGAAAAUAUGGGAGGAUAUACAAACACGAAAGUGAAAGUAGAAGGCCUAAAAA [SS! MT 15] | 231 nM | 51.6 nM |
| GUGGACAUAGUUCAGGAUAUAUGAAUAGUCACAUGAGGAUCACCCAUGUCCAUUUAUAUGGGCACAUAGAAGGGAGGUAGUUAAC [Mat - Same state - Malcolm Mod - D124] | 744 nM | 451 nM |
| AAGUCACAUGAGGAUCACCCAUGUCGUAAACGAUGAGGAUAUAGGAACGAAAGAAAAAAACUAGAAGGUAUAACAA [SameState1-03] | 26.7 nM | 28.8 nM |
| GAAAAACAUGAGGAUCACCCAUGUGAAAAUAUGGGAGGAUAUACAAGGACGAAAGUCAAGGUAGAAGGCCUAAAAG [Mat - Same State 1 - Eli mod - 27] | 78.8 nM | 39.4 nM |
| GAAAAACAUGAGGAUCACCCAUGUGAAAAUAUGGAAGGAUAUACAAAGACGAAAGUCAAAGUAGAAGGUCUAAAAG [Mat - Same State 1 - Eli mod - D14] | 22.5 nM | 15 nM |
| AGGAAACAUGAGGAUCACCCAUGUAAAAAUAUGGGAGGAUAUUGGAAUAAAAUAAAGAACCGAGAAGGCCUAAAAA [59%, Flamingo, 6] | 219 nM | 32.3 nM |
| AAAAAAAAAACUCAGGAUAUAGAUCGUUGAACAUGAGGAUCACCCAUGUAGUGAAAAGCGAAAAACUAGAAGGGAGGAAAAAAAAA [SameState2-02] | 28.7 nM | 13.3 nM |
| GAAAUAAAAACACAGGAUAUCCAAAAGAAAACAUGAGGAUCACCCAUGUAAAGAAAAUAAAAAUGGGAGAAGGGUGAAAAUAAAA [Mat - Same State 2 - JL mod - D26] | 41.3 nM | 15.8 nM |
| UUAAAACAUGAGGAUCACCCAUGUAGAAAUAUGGGAGGAUAUACGAAGACGAAAGUCAAAGUAGAAGGCCUAAAUU [Mat - Same State 1 - Eli mod - D112] | 64.9 nM | 25.2 nM |
| AAAAAAUAAAAAAAGGAUAUAAUGCUACAGACAUGAGGAUCACCCAUGUAGGUAGCAUUAAUAAAAAAGAAGGAAAAAUAAAAAA [SS2: MS2 32] | 15.3 nM | 9.09 nM |
| GUGAGACAUGAGGAUCACCCAUGUACGCGUCAGCAAGGAUAUGGGAAUAAAAGACAGAGACCAGAAGGUGCUGUUG [Arzaerri] | 67.5 nM | 22.9 nM |
| AGGAAACAUGAGGAUCACCCAUGUAAAAAUAUGGGAGGAUAUACAAACAAGAAAGUCAAAGUAGAAGGCCUAAAAG [Garnet 6] | 152 nM | 63.7 nM |
| AUAGACAUAGUUCAGGAUAUGGUAAUAGUCACAUGAGGAUCACCCAUGUGCAUUUAUAUGCGCGAUCAGAAGGGAGGUAGAUAUA [Mat - Same state - Malcolm Mod - D117] | 16.3 nM | 17.7 nM |
| ACUUCACAUGAGGAUCACCCAUGUCAGGCCGGACUAGGAUAUUAUCAAGCAGCGUAACCAUAAGAAGGAGUAGGAA [JR_SS001_Sub313] | 82.5 nM | 57.7 nM |
| AGGAAACAUGAGGAUCACCCAUGUAAAAAUAUGGGAGGAUAUACAAACAAGAAAGUCAGAGUAGAAGGCCUAAAAG [Garnet 7] | 145 nM | 73.7 nM |
| GGUACAUCUAGUUAGGAUAUCAGAUGUAAGACAUGAGGAUCACCCAUGUCCUAAGAAUAGGUAACUGAGAAGGAACAGGGAGUCC [JR_SS002_Sub417] | 29.8 nM | 36.5 nM |
